# B1: RHOBTB2 (parent)
# chain: NQEITKAFHVRRTNRVKECLAKGT
# Variants of: B1
# Test: protein stability index of a GFP-peptide fusion (GPS, HEK-293T) (PSI 1-6); higher = more stable
# Conditions: c terminus: a fixed tail appended
# 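Also: lentivirally expressed fusions sorted by FACS into six bins by GFP to DsRed ratio, PSI derived from sequencing read proportions per bin multiplied by bin number.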
row,Variant,protein stability index
1,N14P,3.38
2,N14M,2.54
3,N14D,3.82
4,N14T,2.95
5,N14W,2.15
6,N14L,3.09
7,N14S,2.48
8,N14Y,1.82
9,N14K,3.15
10,N14C,1.88
11,N14F,2.15
12,N14I,3.58
13,N14Q,3.09
14,N14G,3.17
15,N14E,4.4
16,N14R,2.97
17,N14V,2.83
18,N14A,4.05
19,N14H,3.43
20,R15T,3.87
21,R15V,3.73
22,R15K,3.29
23,R15W,2.58
24,R15F,2.84

row,Variant,protein stability index
1,R15G,2.9
2,R15I,3.12
3,R15N,3.48
4,R15C,3.27
5,R15Y,2.86
6,R15P,3.29
7,R15A,3.66
8,R15M,3.78
9,R15L,3.36
10,R15D,4.21
11,R15Q,3.87
12,R15S,3.54
13,E18H,2.58
14,E18V,3.4
15,E18K,3.08
16,E18T,3.93
17,E18R,2.74
18,E18G,2.88
19,E18S,2.59
20,E18I,1.94
21,E18D,3.47
22,E18Q,2.87
23,E18L,2.83
24,E18A,3.08

row,Variant,protein stability index
1,E18W,2.23
2,E18P,2.59
3,E18M,2.75
4,E18Y,2.67
5,E18F,2.59
6,E18N,2.92
7,R12S,3.95
8,R12V,2.83
9,R12W,2.38
10,R12Q,3.93
11,R12Y,2.67
12,R12T,3.69
13,V16Y,1.97
14,V16I,2.91
15,V16F,2.48
16,V16H,2.88
17,V16E,3.45
18,V16P,4.09
19,V16N,3.41
20,V16W,3.4
21,V16L,3.92
22,V16T,3.02
23,V16C,2.51
24,V16R,3.21

row,Variant,protein stability index
1,V16K,3.41
2,V16Q,2.79
3,V16D,4.7
4,V16S,2.95
5,V16A,2.78
6,V16M,2.8
7,T13A,3.72
8,T13Y,1.78
9,T13M,3.57
10,T13D,4.09
11,T13H,3.36
12,T13E,3.97
13,T13K,2.79
14,T13Q,3.93
15,T13L,3.32
16,T13S,3.96
17,T13W,2.02
18,T13P,3.98
19,T13N,3.54
20,T13C,2.78
21,T13I,2.1
22,T13G,2.49
23,K22D,3.64
24,K22A,4.19

row,Variant,protein stability index
1,K22C,3.3
2,L20N,3.27
3,L20E,4.03
4,L20S,4.04
5,L20T,3.45
6,L20R,2.74
7,L20M,3.59
8,L20H,2.84
9,L20W,2.22
10,L20F,3.44
11,L20G,2.97
12,L20P,2.39
13,L20K,3.83
14,L20Y,2.58
15,L20D,3.98
16,L20I,4.41
17,L20V,4.62
18,L20Q,3.74
19,C19R,2.9
20,C19Q,3.35
21,C19I,2.5
22,C19G,3.41
23,C19W,2.35
24,C19K,3.46

row,Variant,protein stability index
1,C19V,3.08
2,C19F,2.77
3,C19S,2.81
4,C19N,3.27
5,C19Y,2.33
6,C19A,3.42
7,C19M,2.78
8,C19P,3.11
9,C19D,3.13
10,C19E,3.45
11,C19H,2.59
12,C19T,3.65
13,A21S,2.48
14,A21Y,2.83
15,A21V,2.8
16,A21C,1.94
17,A21D,3.83
18,A21I,2.27
19,A21F,2.85
20,A21H,2.35
21,A21W,2.28
22,A21E,3.63
23,A21K,3.15
24,A21L,2.61

row,Variant,protein stability index
1,A21T,3.73
2,A21P,3.38
3,A21N,3.42
4,A21Q,2.65
5,A21M,2.23
6,K17D,3.64
7,K17M,2.54
8,K17G,2.74
9,K17F,2.06
10,K17P,2.4
11,K17V,2.26
12,K17S,3.63
13,K17R,2.47
14,K17C,2.22
15,K17I,1.75
16,K17W,2.3
17,K17Y,2.36
18,K17N,2.92
19,K17T,3.15
20,K17E,3.04
21,K17L,3.12
22,K17Q,2.55
23,K17H,2.94

# From the supplement of paper PMC10567573
